# T1: I54A
# T1 construct: also called human TGF-βRII with I54A (alanine scan clone)
# T1 receptor: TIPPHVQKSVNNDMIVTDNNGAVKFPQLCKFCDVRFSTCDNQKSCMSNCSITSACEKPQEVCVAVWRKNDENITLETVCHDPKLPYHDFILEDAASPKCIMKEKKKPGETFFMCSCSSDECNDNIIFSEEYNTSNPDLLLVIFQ
# T2: T52A
# T2 construct: also called human TGF-βRII with T52A (alanine scan clone)
# T2 receptor: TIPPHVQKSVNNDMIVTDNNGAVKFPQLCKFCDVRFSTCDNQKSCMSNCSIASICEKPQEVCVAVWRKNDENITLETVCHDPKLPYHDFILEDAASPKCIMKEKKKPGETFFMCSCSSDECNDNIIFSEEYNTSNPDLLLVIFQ
# T3: E120A
# T3 construct: also called human TGF-βRII with E120A (alanine scan clone)
# T3 receptor: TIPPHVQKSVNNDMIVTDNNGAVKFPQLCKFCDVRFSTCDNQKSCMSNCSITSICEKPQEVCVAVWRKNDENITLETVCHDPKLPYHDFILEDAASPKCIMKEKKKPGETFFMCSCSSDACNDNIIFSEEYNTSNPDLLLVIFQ
# T4: F25A
# T4 construct: also called human TGF-βRII with F25A (alanine scan clone)
# T4 receptor: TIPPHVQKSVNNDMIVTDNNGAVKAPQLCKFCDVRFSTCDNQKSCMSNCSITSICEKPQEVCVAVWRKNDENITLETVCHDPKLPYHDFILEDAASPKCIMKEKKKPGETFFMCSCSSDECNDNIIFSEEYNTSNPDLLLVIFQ
# T5: D119A
# T5 construct: also called human TGF-βRII with D119A (alanine scan clone)
# T5 receptor: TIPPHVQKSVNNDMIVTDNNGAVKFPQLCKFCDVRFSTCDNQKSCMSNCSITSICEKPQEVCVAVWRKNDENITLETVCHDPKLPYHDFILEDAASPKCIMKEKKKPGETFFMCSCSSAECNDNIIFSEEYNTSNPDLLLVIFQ
# T6: L28A
# T6 construct: L28 is named only on the sheet; also called human TGF-βRII with L28A (alanine scan clone)
# T6 receptor: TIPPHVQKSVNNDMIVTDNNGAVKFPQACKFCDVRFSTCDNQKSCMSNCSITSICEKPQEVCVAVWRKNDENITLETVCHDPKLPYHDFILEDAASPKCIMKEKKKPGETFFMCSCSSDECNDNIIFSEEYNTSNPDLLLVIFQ
# Columns and labels:
# [1] = target: T7, Human TGF-βRII-Fc (R&D; cat. no. 341-BR) (human, UniProt P37173 23-159); test: ELISA; blocking of TGF-βRII-Fc binding to coated TGF-β1
# T7 construct: Bought construct; not shown: Fc part of the bought fusion
# I54A = target: T1, I54A; test: shotgun mutagenesis alanine scan, mean fluorescence of the mutant clone in % of wildtype
# T52A = target: T2, T52A; test: as above
# E120A = target: T3, E120A; test: as above
# F25A = target: T4, F25A; test: as above
# D119A = target: T5, D119A; test: as above
# L28A = target: T6, L28A; test: as above
# [2] = target: T7, Human TGF-βRII-Fc (R&D; cat. no. 341-BR); test: ligand blocking ELISA: TGF-βRII-Fc on coated TGF-β1, antibody titrated (OD450)
Binder,IC50 [1],Binding Reactivity (% WT) (I54A),Binding Reactivity (% WT) (T52A),Binding Reactivity (% WT) (E120A),Binding Reactivity (% WT) (F25A),Binding Reactivity (% WT) (D119A),Binding Reactivity (% WT) (L28A),IC50 (read off the curve) [2]
"antibody comprising heavy chain variable regions having SEQ ID NO: 93 (antibody, V domains shown, From the second round of immunization; tested as bivalent IgG) VH: EVQLVESGGDLVKPGGSLRLSCAASGFTFSNAWMSWVRQAPGKGLEWVGRVKTTVSGGTTDYAAAVKGRFTISRDDSKNTLYLQMNSLKTEDTAIYYCTIDLRDYWGQGTLVTVSS VL: not shown",0.155 µg/mL,24 % WT,23.4 % WT,91.5 % WT,2.28 % WT,2.8 % WT,22.8 % WT,–
"antibody comprising heavy chain variable regions having SEQ ID NO: 94 (antibody, V domains shown, IgG expressed in 293T freestyle cells) VH: EVQLVESGGGLVQPGGSLRLSCAASGFTFSRYAMSWVRQAPGKGLEWVSSINTSGGNTFYADSVKGRFTISRDNSKNTLYLQMNSLRAEDTAIYYCAKGIAATGKNYFDPWGQGTLVTVSS VL: not shown",–,–,–,–,–,–,–,~0.03 µg/mL
